Experimental data from the supplement of paper PMC12042874.
± gives the uncertainty stated by the source.

test: amyloid nucleation score (Sup35N fusion, yeast selection) (log enrichment); library NNK2; higher = more nucleation; inactive = no reads after selection
Procedure, shortened: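 For the nucleation score, DiMSum gave the log enrichment of output over input reads, centred on the mode score of non-aggregating sequences. Psi-negative yeast expressing Sup35N fused to peptides of 20 random codons were induced with 100 μM copper sulfate for 24 hours and grown 7 days at 30°C on medium lacking adenine and uracil. Input and output plasmid inserts were Illumina-sequenced, and sequences with under 100 input reads were excluded.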

| Substance | amyloid nucleation score |
| --- | --- |
| WNFKGRLLRMQLTRAHVNHT | inactive |
| NFEHVASLIFGLLILDSQSL | -1.43 ± 0.49 |
| IFMNPICFWSNRNFLVWSNN | 4.5 ± 0.059 |
| TYSVLRHFRRES | 0.589 ± 0.31 |
| TCDWLKAFIAWF | 1.53 ± 0.3 |
| GLRFC | inactive |
| SCVSTYDFNSIR | -0.484 ± 0.25 |
| WHNDSTG | 0.619 ± 0.22 |
| HMCTFSIICKKVLMSFMGIL | 1.93 ± 0.14 |
| PRMGFNDPARLGG | -1.34 ± 0.76 |
| MHMLWETTRWASWCGYLCMG | 4.93 ± 0.059 |
| YNDVCLCNGSLGWKLVLE | -0.177 ± 1 |
| YTLCTMKLREWNRTSTWPSL | -0.003 ± 0.39 |
| SRSGCHYCAVYTQIVLPRAP | 8.711 ± 0.081 |
| TWRIYLTQRAVTSKMYLRAS | 4.74 ± 0.07 |
| KMCIAKKSWEGQLVILYMSA | -0.354 ± 0.48 |
| GTLELMHETWVPSLYPVRMQ | 0.571 ± 0.4 |
| CGVIKHPLSGYYKRASMLCN | -1.52 ± 1.1 |
| YIGEFGFILIPLRSFSPIPC | inactive |
| QFIEMEKIDVVFQEYIGEEG | -0.265 ± 0.41 |
| QCDVSRGAFEGFPYVYMEMW | -1.4 ± 0.62 |
| QSRCGYMGNRH | 0.166 ± 0.76 |

| Substance | amyloid nucleation score |
| --- | --- |
| LFYWLITENASNQTTMSVRE | -0.384 ± 0.54 |
| LCAWDWSGTRVR | 0.903 ± 0.67 |
| SRSSGTDFMYFDRFLPTRWA | -0.805 ± 1.1 |
| HTLGIWLKREPWGMMYGLRG | 0.165 ± 1 |
| CNHIRSKVKVVVCTGHCAVF | 4.62 ± 0.11 |
| VPLHDARTRM | 0.637 ± 0.24 |
| STGRNMKPSLNASFLRLRMF | -0.228 ± 1.1 |
| GLGLSFDVSVVPQDGYGIRL | -0.492 ± 1.1 |
| RVRGGEYRRSYTKWWEGCGS | 3.19 ± 0.091 |
| IVGLQVAFFLVFKSVHRDVA | inactive |
| SETNMVHPYAIYLKVRYANN | 0.566 ± 0.24 |
| GLVVTSNPSDMSVMELCLWF | -0.347 ± 0.3 |
| SLSERLVILMTWCTFVVSAQ | 1.17 ± 0.29 |
| HEPNSYHPRVGLIQELWHCG | 0.473 ± 0.45 |
| MVYNQCRSDL | -1.04 ± 0.23 |
| LQVTPIIPYCVSELYMYGGM | -0.097 ± 0.79 |
| THLHCCYRETISDP | 0.175 ± 0.33 |
| MKNFNVYSTYWLCMGEYGCL | 6.34 ± 0.078 |
| TVSMLLGRRCVRFRVMVRVG | 4.79 ± 0.05 |
| ILTTCMNAKKLNLFGYGL | -0.291 ± 0.63 |
| HCNCHRIVYLECVLPYIHCI | -0.919 ± 0.55 |
| LNNGCCMSLPVPTRPDDRDK | 0.356 ± 0.8 |

| Substance | amyloid nucleation score |
| --- | --- |
| KSCAVFYSSNYVSGSNYLFF | 6.369 ± 0.047 |
| LMISCSYICSVVDYHLMGGS | 3.55 ± 0.06 |
| SSDATCGVDGHFRLLITHCG | 5.9 ± 0.075 |
| IIGFLFMDFLLSCRFQFCT | -1.32 ± 0.45 |
| FYQRLMSLTTMYLIQRHSL | -0.038 ± 0.74 |
| LRNDDIY | -0.533 ± 0.39 |
| YSDSSSREMEQSGL | -0.199 ± 0.63 |
| SACWEGGSSFVIKGKTRLFG | 1.94 ± 0.19 |
| QGFVPHRSIWHTSNLSDWFM | inactive |
| RCNRSCN | inactive |
| LCTRHACNIYGPLPNAHLVR | 0.643 ± 0.31 |
| NDLARSFRV | -1.13 ± 1.1 |
| PLNGIRFWSDVNLSRDGSSM | -0.025 ± 1.1 |
| VYCHRLNIILIGRVFCSEDI | 0.062 ± 0.55 |
| CTLLTNITLFRGLHGTKFFC | 2.43 ± 0.14 |
| SAYLPSHLYTAFEPHGLVST | 0.933 ± 0.2 |
| TCYRSDRPIRRRVAFALTEG | 1.04 ± 0.41 |
| CQTHPYYVICFQAVKKCWES | -0.899 ± 0.56 |
| DVWIFMTECGDAV | 0.743 ± 0.81 |
| GDCQE | 1.1 ± 0.23 |
| ISVQATGASESETIPIQTGY | 2.13 ± 0.11 |
| NFYSYIWLLL | 6.38 ± 0.064 |

| Substance | amyloid nucleation score |
| --- | --- |
| PSYRCK | inactive |
| CVNVTLASFQVLNNPLHRSF | 4.896 ± 0.041 |
| FLGLYKRYGVEVGLYMLILV | -0.742 ± 0.24 |
| SNRWPGTFLASETNVLLE | -0.224 ± 0.32 |
| LITRVSSYCCWCLGFTIWAL | -0.77 ± 1 |
| YMTTNRKPLDFYQHVYLMKV | inactive |
| IKTGSGVARVGYFLC | 0.42 ± 0.47 |
| YNAVA | inactive |
| LFPLI | 1.24 ± 0.44 |
| CTIIFNLLLAD | 7.396 ± 0.055 |
| HREWG | 0.668 ± 0.46 |
| LVSRSYD | -0.341 ± 0.79 |
| STNCFRAFTHYPMYIGCVVM | -0.159 ± 0.8 |
| VMSFTASA | 0.607 ± 0.51 |
| LNVWRLFRRWWEWRRDCEFA | 0.435 ± 0.37 |
| LSLNG | -0.955 ± 0.39 |
| RVIDLVTCKAHSGWSVLGYM | -0.402 ± 0.37 |
| YYYDYVCLLWDLEEVSRHAL | -0.442 ± 1 |
| MYRVEGL | inactive |
| FVGCYNSRK | 2.4 ± 0.08 |
